For orientation: pKa means the pH at which an ionisable group is half protonated.

This series concerns Lys1 (position 1, -----K-----). As to the kind of experiment: potentiometry. As to conditions: No added salt; only the amphiphile counterions and the added NaOH; none (ultrapure water); 4 mM amphiphile, self-assembled; the assembly morphology changes with pH during the titration.

On to “C12-K (lysine amphiphile with a C12 alkyl tail) (synthetic)”, for which the pKa amounted to 8.69.

For “C14-K (lysine amphiphile with a C14 alkyl tail) (synthetic)”, the pKa was determined as 8.01. The value for “C16-K (lysine amphiphile with a C16 alkyl tail; L enantiomer titrated) (synthetic)” was 7.66.

(Values after publication PMC9413830.)
